In article doi:10.1101/124255:

Biological target: dynein-dynactin-BicD2N (DDB) complex (mouse | rat (endogenous in rat brain cytosol)) (UniProt Q921C5)
Experiment: multicolor single-molecule TIRF microscopy

Sequence of UniProt Q921C5 (Q921C5 whole entry, looked up, one chain of several): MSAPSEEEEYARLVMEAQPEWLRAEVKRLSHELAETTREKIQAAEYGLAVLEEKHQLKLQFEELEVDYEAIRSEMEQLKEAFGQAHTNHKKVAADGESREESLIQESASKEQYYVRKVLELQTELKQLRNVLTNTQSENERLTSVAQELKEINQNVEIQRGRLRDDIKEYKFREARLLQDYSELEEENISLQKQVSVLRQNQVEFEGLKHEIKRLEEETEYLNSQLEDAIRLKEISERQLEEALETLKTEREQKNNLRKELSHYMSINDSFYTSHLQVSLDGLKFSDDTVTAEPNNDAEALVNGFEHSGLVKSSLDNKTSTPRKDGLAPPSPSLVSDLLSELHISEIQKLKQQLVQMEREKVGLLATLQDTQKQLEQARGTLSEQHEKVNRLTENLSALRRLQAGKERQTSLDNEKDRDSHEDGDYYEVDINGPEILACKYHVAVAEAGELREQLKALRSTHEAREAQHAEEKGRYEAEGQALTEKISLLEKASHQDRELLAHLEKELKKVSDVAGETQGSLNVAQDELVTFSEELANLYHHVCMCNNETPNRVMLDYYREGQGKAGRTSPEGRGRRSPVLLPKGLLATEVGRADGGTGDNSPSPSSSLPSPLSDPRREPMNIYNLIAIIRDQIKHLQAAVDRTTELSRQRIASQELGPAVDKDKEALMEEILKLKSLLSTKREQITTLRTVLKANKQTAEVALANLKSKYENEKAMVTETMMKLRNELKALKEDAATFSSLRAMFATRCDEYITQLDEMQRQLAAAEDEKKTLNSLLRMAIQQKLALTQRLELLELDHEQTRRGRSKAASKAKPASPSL

B1: Rattus norvegicus LIS1 (PAFAH1b1), StrepII-SNAPf tagged, wild type (natural protein)
chain: MVLSQRQRDELNRAIADYLRSNGYEEAYSVFKKEAELDMNEELDKKYAGLLEKKWTSVIRLQKKVMELESKLNEAKEEFTSGGPLGQKRDPKEWIPRPPEKYALSGHRSPVTRVIFHPVFSVMVSASEDATIKVWDYETGDFERTLKGHTDSVQDISFDHSGKLLASCSADMTIKLWDFQGFECIRTMHGHDHNVSSVAIMPNGDHIVSASRDKTIKMWEVQTGYCVKTFTGHREWVRMVRPNQDGTLIASCSNDQTVRVWVVATKECKAELREHEHVVECISWAPESSYSSISEATGSETKKSGKPGPFLLSGSRDKTIKMWDVSTGMCLMTLVGHDNWVRGVLFHSGGKFILSCADDKTLRVWDYKNKRCMKTLNAHEHFVTSLDFHKTAPYVVTGSVDQTVKVWECR
modifications: SNAP dye (SNAP-Alexa 647 or SNAP-Surface 488) covalently on the SNAP tag
- percent of DDB-L complexes with both 647- and 488-SNAP LIS1: 8%
- percent of DDB-L complexes with two LIS1 dimers: < 24%
- percent of diffusive DDB complexes with a bound LIS1: 34%
- percent of processive DDB complexes with a bound LIS1: 18%
- stoichiometry N (LIS1 dimer per DDB): 1
- stoichiometry N (LIS1 dimers per DDB): 2
